The target of assay [1] is T1, HPV16 E6 oncoprotein (HPV16, UniProt P03126 1-158).
T1 construct: Expressed in yeast from pPC97; In the functional assays it is the endogenous E6 of HPV16-positive cells; also called HPV16 E6 protein; HPV-E6
Nature of the assay: yeast two-hybrid screening.

Another assay addresses T2, HPV6 E6 protein (HPV6, UniProt P06462 1-150).
T2 construct: Expressed in yeast from a pPC97 expression vector; also called E6 of HPV6
T2 sequence: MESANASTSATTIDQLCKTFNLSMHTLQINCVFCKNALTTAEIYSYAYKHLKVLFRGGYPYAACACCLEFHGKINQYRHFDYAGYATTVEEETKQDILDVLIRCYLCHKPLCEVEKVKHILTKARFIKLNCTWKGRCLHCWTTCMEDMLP
Nature of the assay: yeast two-hybrid.

The target in the next assay is T3, HPV18 E6 protein (HPV18, UniProt P06463 1-158).
T3 construct: Expressed in yeast from a pPC97 expression vector; also called E6 of HPV18
Briefly: yeast two-hybrid.

Another assay deals with T4, HPV11 E6 protein (HPV11, UniProt P04019 1-150).
T4 construct: Expressed in yeast from a pPC97 expression vector; also called E6 of HPV11
T4 sequence: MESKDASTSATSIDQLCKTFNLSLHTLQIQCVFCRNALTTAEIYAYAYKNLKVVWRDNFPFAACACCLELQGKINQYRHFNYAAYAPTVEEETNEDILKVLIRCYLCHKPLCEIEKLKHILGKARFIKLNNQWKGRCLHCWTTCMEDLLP
Nature of the assay: yeast two-hybrid.

The target in assay [2] is T1, HPV16 E6 oncoprotein. Nature of the assay: mutational studies (two-hybrid; assay not further described).

These results are taken from US20110201560A1 (DKFZ DEUTSCHES KREBSFORSCHUNGSZENTRUM STIFTUNG DES …, published 2011).

T3 sequence (P06463 whole entry): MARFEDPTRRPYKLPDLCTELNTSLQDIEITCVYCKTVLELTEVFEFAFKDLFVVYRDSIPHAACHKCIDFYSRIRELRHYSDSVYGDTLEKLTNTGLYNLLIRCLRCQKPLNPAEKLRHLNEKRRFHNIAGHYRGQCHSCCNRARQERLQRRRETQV
T1 sequence (P03126 whole entry): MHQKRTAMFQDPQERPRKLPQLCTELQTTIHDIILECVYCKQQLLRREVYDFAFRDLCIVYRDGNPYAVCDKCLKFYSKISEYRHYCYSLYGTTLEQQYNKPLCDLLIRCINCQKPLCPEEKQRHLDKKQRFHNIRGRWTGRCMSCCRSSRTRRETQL

B1: E6 pep5 (peptide)
peptide: PFLLGCFCLCCWIECQIGSYGP
notes: Linear peptide from a randomized 20-mer library; Expressed in yeast as a GAL4AD fusion (vector pADpep); also called a2
B1: the binding result was “binds” with HPV16 E6 oncoprotein [1], “no binding” with HPV6 E6 protein, “no binding” in the assay with HPV18 E6 protein and “no binding” with HPV11 E6 protein.

Regarding KEKEEYNSNSSSIASIGLI (also called b2) [pep11**m], the binding result in the assay with HPV16 E6 oncoprotein [2] is “no binding”.

B2: E6 pep 1 (peptide)
peptide: KGSLNCSCLVCWLQMFLGEFGP
notes: Linear peptide from a randomized 20-mer library; Expressed in yeast as a GAL4AD fusion (vector pADpep); also called a1
For B2, the binding result is “binds” in the assay with HPV16 E6 oncoprotein [1], “no binding” in the assay with HPV6 E6 protein, “no binding” with HPV18 E6 protein and “no binding” with HPV11 E6 protein.

B3: E6 pep 11 (peptide)
peptide: EFGSGCSCIVCIGLI
notes: Expressed in yeast as a GAL4AD fusion (pADpep), in the mammalian two-hybrid assay as a VP16AD fusion (pACT2), and in the p53 reporter assay as an hrGFP fusion; also called a3
Consider B3, for which the binding result with HPV16 E6 oncoprotein [1] is given as “binds”; in the assay with HPV6 E6 protein, “no binding”; with HPV18 E6 protein, “no binding”; with HPV11 E6 protein it was “no binding”.
